Test results: patent publication US20240043530A1 (JIANGSU HENGRUI PHARMACEUTICALS, published 2024)
Like-named read-outs stand apart in the source and are kept apart here.

Experiments:
[1] = molecular target: human PVRIG expressed on the cell surface (human) (UniProt Q6DKI7); test: cell-based or functional assay
[2] = molecular target: T1, cynomolgus monkey PVRIG expressed on the cell surface (cynomolgus monkey, UniProt A0A2K5WVV8 1-322); test: flow cytometry on cells overexpressing cynomolgus monkey PVRIG, labelled anti-human IgG (method of Example 5)
T1 construct: whole, on cells; also called cells overexpressing cynomolgus monkey PVRIG; Monkey PVRIG FACS
T1 sequence: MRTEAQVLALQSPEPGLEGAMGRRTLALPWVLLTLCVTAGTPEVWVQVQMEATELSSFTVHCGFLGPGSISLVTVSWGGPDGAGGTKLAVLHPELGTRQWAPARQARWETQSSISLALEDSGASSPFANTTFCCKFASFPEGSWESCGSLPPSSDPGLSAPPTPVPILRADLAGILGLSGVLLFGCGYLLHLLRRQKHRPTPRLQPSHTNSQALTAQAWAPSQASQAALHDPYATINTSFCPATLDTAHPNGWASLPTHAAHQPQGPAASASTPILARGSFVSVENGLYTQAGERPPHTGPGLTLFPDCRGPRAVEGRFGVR
Description: The expression plasmid carries human or cynomolgus monkey PVRIG gene sequence was transfected into HEK293 cells, and the over-expressing stable transfection monoclonal cell strain was obtained by antibiotic screening and infinite dilution. Overexpressing cells were seeded into a 96-well plate at 2×10⁵ cells/per well. The cells were centrifuged at 300 g for 5 min, the supernatant was then removed, 100 μL of the test antibody was added, and the mixture was incubated at 4° C. for 1 h. The mixture was centrifuged, the supernatant was removed, the plate was washed 3 times with 200 μL of a washing solution (PBS+2% FBS), and then 100 μL of an anti-human IgG secondary antibody (Invitrogen, A-11013) labeled with Alexa Fluor 488 diluted at 1:500 was added. The mixture was incubated at 4° C. for 1 h. The mixture was centrifuged, the supernatant was removed, and the plate was washed 3 times with 200 μL of a washing solution (PBS+2% FBS). Cells were resuspended in 100 μL of PBS and detected by a flow cytometer (BD FACS Calibur or BD FACS Canto_II).
(§1) Binding of the humanized anti-PVRIG/TIGIT bispecific antibodies to human and cynomolgus monkey PVRIG and their blocking of the ligand of human PVRIG were detected according to the methods of Examples 4, 5 and 6.

[3] = molecular target: T2, his-tagged cynomolgus monkey PVRIG recombinant protein (cynomolgus monkey); test: ELISA, plate coated with cynomolgus monkey PVRIG recombinant protein, HRP anti-human IgG, OD450 (method of Example 4)
T2 construct: expressed in HEK293, purified by Ni-NTA; also called cyno-PVRIG-his; Cynomolgus monkey PVRIG-his
T2 chain: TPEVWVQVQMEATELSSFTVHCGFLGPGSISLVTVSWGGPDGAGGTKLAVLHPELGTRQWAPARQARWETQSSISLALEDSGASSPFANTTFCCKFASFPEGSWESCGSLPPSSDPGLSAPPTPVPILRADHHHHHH
Description: Human, cynomolgus monkey or mouse PVRIG protein (at a concentration of 1 μg/mL) was coated on a 96-well microplate at 100 μL per well, and incubated overnight at 4° C. The plate was washed three times with a washing solution at 250 μL per well. For each wash, the plate was shaken for 10 s to ensure adequate cleaning. A blocking solution (PBS+0.05% Tween20+1% BSA) was added at 300 μL per well and the plate was incubated at room temperature for 1 h. The plate was washed three times with a washing solution at 250 μL per well. For each wash, the plate was shaken for 10 s to ensure adequate cleaning. The test anti-PVRIG antibody diluted in diluent was added at 100 μL per well. The mixture was incubated at 37° C. for 1 h. The plate was washed three times with a washing solution at 250 μL per well. HRP-labeled anti-human IgG secondary antibody (Sigma, A8667) was added at 100 μL per well. The mixture was incubated at 37° C. for 1 h. The plate was washed three times with a washing solution at 250 μL per well. […] The OD values at 450 nm were read by using a Thermo MultiSkanFc microplate reader, and the EC₅₀ values of the binding of the anti-PVRIG antibodies to PVRIG were calculated.
as §1

[4] = molecular target: T3, human PVRIG expressed on the cell surface (human, UniProt Q6DKI7 41-326); test: cell-based or functional assay
T3 sequence (looked up): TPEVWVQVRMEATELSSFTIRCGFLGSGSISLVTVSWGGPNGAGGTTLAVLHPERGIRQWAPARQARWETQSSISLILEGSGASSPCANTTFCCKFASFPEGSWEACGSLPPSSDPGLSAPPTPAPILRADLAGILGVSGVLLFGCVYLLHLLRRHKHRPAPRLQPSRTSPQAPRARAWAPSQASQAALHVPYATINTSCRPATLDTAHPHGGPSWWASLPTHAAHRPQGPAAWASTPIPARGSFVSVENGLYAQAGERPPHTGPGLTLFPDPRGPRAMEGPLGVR

[5] = molecular target: T3, human PVRIG expressed on the cell …; test: cell-based or functional assay; remark: listed apart in the source
[6] = molecular target: T3, human PVRIG expressed on the cell …; test: cell-based or functional assay; remark: listed apart in the source
[7] = molecular target: T3, human PVRIG expressed on the cell …; test: cell-based or functional assay; remark: listed apart in the source
[8] = molecular target: T3, human PVRIG expressed on the cell …; test: cell-based or functional assay; remark: listed apart in the source

Molecule: IgG4 control antibody
- IFNγ (pg/mL) in mixed lymphocyte reaction, 20 nM antibody (control) [1]: 74 pg/mL
- IFNγ (pg/mL) in mixed lymphocyte reaction, 100 nM antibody (control) [1]: 89 pg/mL
- Killing activity (%) of NK92 on K562, 4 nM antibody (control) [1]: 11.2%
- Killing activity (%) of NK92 on K562, 20 nM antibody (control) [1]: 11.7%
- Killing activity (%) of NK92 on K562, 100 nM antibody (control) [1]: 9.2%

B1: anti-TIGIT antibody 1708 (antibody, human IgG4 S228P, kappa, V domains shown)
VH: EVQLVQSGAEVKKPGASVKVSCKASGYTFTNYWMHWVRQAPGQGLEWMGRIDPDSTGSKYNEKFKTRVTMTRDTSTSTVYMELSSLRSEDTAVYYCAREGAYGYYFDYWGQGTLVTVSS
VL: DIQMTQSPSSLSASVGDRVTITCRASENIYSYLAWYQQKPGKSPKLLIYNARTLAEGVPSRFSGSGSGTDFTLTISSLQPEDFATYYCQYHSGSPLPFGGGTKVEIKR
notes: human IgG4 subtype with S228P; kappa light chain
- binding result [2]: no binding (tested: about 200 nM)
- binding result [3]: no binding (tested: about 20 nM)

B2: positive antibody Tab5 (antibody, human IgG4 S228P, kappa, F234A L235A, V domains shown)
VH: EVQLVESGGGVVKPGGSLRLSCAASGFTFGTSSMNWVRQAPGKGLEWVAVISFDGTEIHYADSVKGRFTISRDNSKSTVFLQMNSLRPDDTALYYCAKGSGNIYFYSGMDVWGQGTTVTVSS
VL: DIQMTQSPSTLSASVGDRVTITCRAGQSISGWLAWFQQKPGKAPNLLIYETSTLESGVPSRFSGSGSGTEYTLTISSLQPDDFATYYCQQYYSYPLTFGQGTKVEIKR
- Killing activity (%) of NK92 on K562, 4 nM antibody [4]: 5.9%
- Killing activity (%) of NK92 on K562, 20 nM antibody [4]: 7.9%
- Killing activity (%) of NK92 on K562, 100 nM antibody [4]: 10%
- IFNγ (pg/mL) in mixed lymphocyte reaction, 4 nM antibody [5]: 912 pg/mL
- IFNγ (pg/mL) in mixed lymphocyte reaction, 20 nM antibody [5]: 1420 pg/mL
- IFNγ (pg/mL) in mixed lymphocyte reaction, 100 nM antibody [5]: 2350 pg/mL
- Killing activity (%) of NK92 on K562, 20 nM antibody [6]: 32%
- Killing activity (%) of NK92 on K562, 100 nM antibody [6]: 32%
- Experiment on activity in PVRIG reporter cells EC50 [7]: 1.38 nM
- Experiment on activity in PVRIG reporter cells EC50 [8]: 0.74 nM
